Assay results published in US20060240417A1, “Agent controlling the apoptosis induction by p73” (Hisamitsu Pharmaceutical Co., Inc., priority 2002, published 2006).

B1: deltaNp73 promoter 61-bp probe (dsDNA)
DNA 1: GTGCGGTCCAACACATCACCGGGCAAGCTGAGGCCTGCCCCGGACTTGGATGAATACTCAT
DNA 2: ATGAGTATTCATCCAAGTCCGGGGCAGGCCTCAGCTTGCCCGGTGATGTGTTGGACCGCAC

Assays:
[1] = system: p73α and ΔNp73α in SH-SY5Y cells; assay: Immunoblot (Western blotting) of cisplatin-treated tumor cells; format: cell-based, human; details: tumor cells treated with cisplatin, RT-PCR
Method: The present inventors ascertained that treating tumor cells with the DNA inhibiting agent cisplatin causes apoptosis of the tumor cells in a dose-dependent manner. Production of proteins p53 and p73α was confirmed by Western blotting. The tumor cells in this case are preferably neuroblastoma cells, but may also be other central or peripheral nervous system tumor cells.
The cells were lysed in EBC buffer (50 mM Tris-HCl, pH 8.0/120 mM NaCl/0.5% Nonidet P-40) containing 1 mM phenylmethylsulfonyl fluoride. The lysate was clarified by centrifugation at 14,000 rpm at 4° C. for 15 minutes. The protein concentration was determined by the Bradford procedure. For immunoblot analysis, the proteins were resolved by SDS […] gel electrophoresis and transferred to a nitrocellulose membrane. The membrane filter was blocked with 5% powdered milk in TBST (10 mM Tris-HCl, pH 8.0/150 mM NaCl/0.1% Tween 20) for 1 hour at room temperature. […] The bound secondary antibody was detected by enhanced chemiluminescence (ECL, Amersham Pharmacia Biotech) according to the manufacturer's protocol.
The whole cell protein (40 μg) was extracted from each culture. The expression levels of p73α and p53 were each determined by immunoblot analysis (described above) using p73α-specific antibody (Ab-1) or p53-specific antibody (DO-1). […]

p73alpha = biological target: T1, p73alpha (UniProt O15350 O15350:1-636); assay: EMSA; supershifted by anti-HA; poly(dI-dC), 3.125 mM MgCl2, room temperature; details: tags: HA tag; TNT reticulocyte lysate; label: 32P
T1 sequence: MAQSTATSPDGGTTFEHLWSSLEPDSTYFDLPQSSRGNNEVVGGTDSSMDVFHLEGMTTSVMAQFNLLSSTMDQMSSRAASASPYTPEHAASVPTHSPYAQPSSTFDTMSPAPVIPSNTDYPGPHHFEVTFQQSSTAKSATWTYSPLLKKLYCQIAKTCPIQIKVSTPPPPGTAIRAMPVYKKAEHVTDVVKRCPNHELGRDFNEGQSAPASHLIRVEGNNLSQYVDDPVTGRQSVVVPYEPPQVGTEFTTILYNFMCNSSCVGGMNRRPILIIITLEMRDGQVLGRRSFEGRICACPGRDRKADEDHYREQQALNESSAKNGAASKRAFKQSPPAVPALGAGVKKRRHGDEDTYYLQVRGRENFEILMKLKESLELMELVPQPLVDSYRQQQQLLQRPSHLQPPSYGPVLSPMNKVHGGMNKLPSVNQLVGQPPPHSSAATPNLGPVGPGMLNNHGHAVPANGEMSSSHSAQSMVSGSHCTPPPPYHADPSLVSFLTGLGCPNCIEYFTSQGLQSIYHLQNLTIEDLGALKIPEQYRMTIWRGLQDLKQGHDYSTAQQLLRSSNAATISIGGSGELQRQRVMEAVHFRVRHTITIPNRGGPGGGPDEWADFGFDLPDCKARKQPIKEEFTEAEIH

p73beta = biological target: T2, p73beta (UniProt O15350-2 O15350-2:1-499); assay: as above; details: tags: HA tag; TNT reticulocyte lysate; label: 32P
T2 sequence: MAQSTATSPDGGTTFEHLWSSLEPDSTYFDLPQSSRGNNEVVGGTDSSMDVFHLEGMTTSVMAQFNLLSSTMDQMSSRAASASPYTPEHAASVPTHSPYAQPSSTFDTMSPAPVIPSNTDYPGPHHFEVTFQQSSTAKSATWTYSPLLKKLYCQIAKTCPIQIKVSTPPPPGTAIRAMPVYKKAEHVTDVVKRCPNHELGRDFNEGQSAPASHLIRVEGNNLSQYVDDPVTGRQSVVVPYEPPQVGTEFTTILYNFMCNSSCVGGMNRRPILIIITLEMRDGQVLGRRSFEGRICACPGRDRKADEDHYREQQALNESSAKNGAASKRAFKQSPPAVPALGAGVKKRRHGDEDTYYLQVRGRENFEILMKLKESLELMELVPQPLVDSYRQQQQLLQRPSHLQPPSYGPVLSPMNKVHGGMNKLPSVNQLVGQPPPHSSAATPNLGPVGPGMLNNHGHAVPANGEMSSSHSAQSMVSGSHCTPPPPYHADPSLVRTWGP

Row | Molecule | production of p73α and ΔNp73α at mRNA and protein level [1] | binding result (p73alpha) | binding result (p73beta)
1 | N.N.[Cl][Pt][Cl] [cisplatin] | induces production of p73α and ΔNp73α | – | –
2 | B1 | – | binds | binds
